Consider 18 substances from patent publication US20120294879A1, “CONSENSUS SEQUENCE FOR INFLUENZA A VIRUS” (priority 2009, published 2012).

In the first assay the target is HLA-DR3 (HLA-DRA*0101 and -DRB1*0301), as expressed in HLA-DR3 transgenic mice (human). In words: cell-based or functional assay.
Regarding “M1 169-185 peptide of influenza virus A/New York/348/2003 (H1N1)”, the IFN-γ ELISpot at 10 µg/ml peptide, splenocytes of immunized HLA transgenic mice stood at 120 and the lowest concentration of peptide giving positive ELISpot response came out at 0.1 µg/mL.
The corresponding values for “NP 37-53 peptide of influenza virus A/New York/348/2003 (H1N1)” are 66 and 1 µg/mL.
The corresponding values for “NP 103-119 peptide of influenza virus A/New York/348/2003 (H1N1)” are 614 and 0.1 µg/mL.
“NP 109-125 peptide of influenza virus A/New York/348/2003 (H1N1)”: the IFN-γ ELISpot at 10 µg/ml peptide, splenocytes of immunized HLA transgenic mice worked out at 501 and the lowest concentration of peptide giving positive ELISpot response came out at 0.1 µg/mL.

The target of the next assay is HLA-DR4 (HLA-DRA*0101 and -DRB1*0401), as expressed in HLA-DR4 transgenic mice (human). In words: cell-based or functional assay.
“NP 73-89 peptide of influenza virus A/New York/348/2003 (H1N1)” yielded an IFN-γ ELISpot at 10 µg/ml peptide, splenocytes of immunized HLA transgenic mice of 121 and a lowest concentration of peptide giving positive ELISpot response of 0.1 µg/mL.
The corresponding values for “PA 126-142 peptide of influenza virus A/New York/348/2003 (H1N1)” are 37 and 0.1 µg/mL.
The corresponding values for “PA 132-148 peptide of influenza virus A/New York/348/2003 (H1N1)” are 41 and 0.1 µg/mL.
“PA 558-574 peptide of influenza virus A/New York/348/2003 (H1N1)” displayed an IFN-γ ELISpot at 10 µg/ml peptide, splenocytes of immunized HLA transgenic mice of 114 and a lowest concentration of peptide giving positive ELISpot response of 0.1 µg/mL.
Substance “PB1 31-47 peptide of influenza virus A/New York/348/2003 (H1N1)” displayed an IFN-γ ELISpot at 10 µg/ml peptide, splenocytes of immunized HLA transgenic mice of 106 and a lowest concentration of peptide giving positive ELISpot response of 0.1 µg/mL.
For the substance “PB1 37-53 peptide of influenza virus A/New York/348/2003 (H1N1)”, the IFN-γ ELISpot at 10 µg/ml peptide, splenocytes of immunized HLA transgenic mice turned out to be 125 and the lowest concentration of peptide giving positive ELISpot response was 0.1 µg/mL.
Substance “PB1 507-523 peptide of influenza virus A/New York/348/2003 (H1N1)” showed an IFN-γ ELISpot at 10 µg/ml peptide, splenocytes of immunized HLA transgenic mice of 274 and a lowest concentration of peptide giving positive ELISpot response of 0.1 µg/mL.
Consider “PB1 656-672 peptide of influenza virus A/New York/348/2003 (H1N1)”, for which the IFN-γ ELISpot at 10 µg/ml peptide, splenocytes of immunized HLA transgenic mice is 59 and the lowest concentration of peptide giving positive ELISpot response is 0.1 µg/mL.
The substance “PB2 42-58 peptide of influenza virus A/New York/348/2003 (H1N1)” displayed an IFN-γ ELISpot at 10 µg/ml peptide, splenocytes of immunized HLA transgenic mice of 166 and a lowest concentration of peptide giving positive ELISpot response of 0.1 µg/mL.
For “PB2 48-64 peptide of influenza virus A/New York/348/2003 (H1N1)” the same measures were 161 and 0.1 µg/mL.
“PB2 126-142 peptide of influenza virus A/New York/348/2003 (H1N1)” gave an IFN-γ ELISpot at 10 µg/ml peptide, splenocytes of immunized HLA transgenic mice of 316 and a lowest concentration of peptide giving positive ELISpot response of 0.1 µg/mL.
As for “PB2 132-148 peptide of influenza virus A/New York/348/2003 (H1N1)”, the IFN-γ ELISpot at 10 µg/ml peptide, splenocytes of immunized HLA transgenic mice was 311 and the lowest concentration of peptide giving positive ELISpot response is 0.1 µg/mL.
With “PB2 369-385 peptide of influenza virus A/New York/348/2003 (H1N1)”, the IFN-γ ELISpot at 10 µg/ml peptide, splenocytes of immunized HLA transgenic mice came out at 54 and the lowest concentration of peptide giving positive ELISpot response was found to be 0.1 µg/mL.
The corresponding values for “PB2 458-474 peptide of influenza virus A/New York/348/2003 (H1N1)” are 238 and 0.1 µg/mL.
